# Measured values from the RNAGym collection of RNA variant scans (doi:10.7554/elife.80360).
# B1: HDV Ribozyme (parent)
# chain: GGCCGGCAUGGUCCCAGCCUCCUCGCUGGCGCCGGCUGGGCAACAUUCCGAGGGGACCGUCCCCUCGGUAAUGGCGAAUGGGACCCA
# Variants of: B1
# Test: self-cleavage, relative activity (ratio to wild type); higher = more cleavage; co-transcriptional
row,Variant,self-cleavage
1,G10U U46G,0.597
2,G1U U23A,0.203
3,G6U G50C,0.776
4,G28A A51C,0
5,U23A G40C,0.181
6,U37C U69G,1.19
7,G40A U47G,0.831
8,C24U G38C,0.0554
9,G28U A45G,0.208
10,C33A G40A,0.214
11,G17U U46G,0.0554
12,G5A C57U,0.106
13,A16U A87U,0.862
14,C21G U47G,0.185
15,G40U C62A,0.709
16,A8C C48A,1.35
17,A8G G17C,0.0519
18,G10A U23A,0.596
19,G54U G59C,1.03
20,C3A A78U,0.0627
21,C22G G67C,0.132
22,C41A A43U,0.57
23,C49G C57A,1.19
24,C30A A87C,0.596

row,Variant,self-cleavage
1,U37C C48A,1.13
2,G11A A71G,0.554
3,G29U C48A,0.117
4,C57U C85U,1.11
5,A43C G73U,0.604
6,G59C C84U,0.774
7,C32A C75G,0.285
8,U9C G50U,1.02
9,G10A G68C,0.453
10,C61U A78C,0.182
11,U27C U69C,0.931
12,C13G C63A,0.0906
13,C13G,0.078
14,U46A A56U,0.704
15,G29A U65A,0.0627
16,A16U G82A,0.745
17,C44U G52A,0.831
18,C64G G80A,0.641
19,C14U U23C,1.47
20,C21A G76A,0.256
21,U9A C41G,0.831
22,U37A A56C,0.229
23,G40C A51U,0.157
24,U27G C49G,0.665

row,Variant,self-cleavage
1,A16G C36U,0.655
2,C3U C21U,0.101
3,G6A C61A,0.695
4,C36U C57A,0.816
5,G6U G39U,0.106
6,G39C A83U,0
7,U23A A71U,0.831
8,C4U A83G,0.464
9,G31A C36G,0.233
10,C49A C58U,1.04
11,C14A C48U,0.791
12,G59C G82C,0.522
13,C4U G52A,0.443
14,C3U G68A,0.831
15,A51U C84G,0.443
16,C75G G80A,0.11
17,A16G G35C,0.138
18,C24U C33U,0.354
19,A51U A83U,0.712
20,U20A C62G,0.0639
21,C84U A87U,0.946
22,A70U G80C,0.213
23,G74U A77G,0.312
24,U65G U72A,0.739

row,Variant,self-cleavage
1,G1U C66U,0.296
2,C30U G53A,0.547
3,G38A C66U,0.128
4,C36G A70C,0
5,U27G U37C,0.762
6,U9A C26G,0.623
7,A16U C85U,1.03
8,G40A U79G,0.755
9,G52A G81A,0.529
10,A56G U69A,0.906
11,C13U C85G,0.332
12,G28C C44G,0
13,G81U C85U,0.31
14,C18A G34A,0.0326
15,G11C A87C,0.607
16,G40C G81A,0.0755
17,G11C U69A,0.166
18,G39U U72A,0.13
19,U27C C30U,0.426
20,U20A U27G,0
21,U12C C24U,0.0791
22,A43G G59U,0.601
23,C66A G76C,0.976
24,C4U G25A,0.111

row,Variant,self-cleavage
1,C48A C57U,0.76
2,G34A G68C,0.0978
3,G53A A77G,0.916
4,U60G A71C,1.21
5,G5A U12A,0
6,C26A G35A,0.633
7,G29C C30G,0
8,A70C C75U,0.0875
9,C44A U72A,0.733
10,C26A A43U,0.527
11,G55A A83U,0.415
12,U27G G31C,0.344
13,C26A G50U,0.958
14,G1C G80A,0.0405
15,C57A G68U,1.14
16,C18G C64A,0
17,G11A C49G,0.156
18,G2C C48G,0.0545
19,U23A C48U,1.21
20,G5A U27G,0.217
21,C4A C66A,0.177
22,C33G C57G,0.214
23,A43U G68A,0.408
24,C14U C86G,1.12

row,Variant,self-cleavage
1,G53C G73A,0.782
2,G6A C14G,0.287
3,G34A G76A,0.257
4,A51G A78C,0.318
5,C24G A87G,0.137
6,G11C C44A,0.0923
7,C36U A70C,0.849
8,G11C U47C,0.453
9,G25U C33G,0.119
10,G31U A83U,0.0627
11,C22A G31U,0.0594
12,A16G U72G,0.332
13,C21U C58A,0.136
14,G52C G74A,0.486
15,A8C U37G,0.166
16,C3G G39A,0.0594
17,C13G C44A,0.0449
18,C49G C85A,0.789
19,C41G C62G,0.252
20,C36A C58A,0.227
21,G17U U69G,0.534
22,C14A U47A,0.639
23,C22A C48A,0.201
24,G1A U46A,0.0755

row,Variant,self-cleavage
1,U23G C61U,0.923
2,G10U A83G,0.221
3,C14U C33A,0.201
4,U20A C86G,0.166
5,G50U G67C,0.617
6,G10C C62G,0.719
7,A43U U47C,0.554
8,U9A U72C,0.688
9,C15U C24A,0.482
10,C62U G80A,0.348
11,C13G A70G,0.229
12,C57G C66G,1.08
13,U9A U79C,0.237
14,C33G C44G,0.101
15,C18A C41G,0.0554
16,C24U C49G,0.536
17,U37A G52U,0.214
18,G11U A71G,0.302
19,C15U C63G,0.776
20,G35U C58U,0.249
21,C13G C48A,0.26
22,U37G A71C,0.0831
23,C7A C86U,0.831
